Two molecules from US10039812B2, “Therapeutic for treating clostridium difficile infection” (priority 2012, dated 2018) can be followed below.

Test [1] concerns C. difficile R20291 biofilm. In words: DNase, RNase and proteinase K digests of biofilm in liquid culture. To be noted: 15 minutes at the concentrations indicated (FIG. 8).
Test [2] concerns C. difficile 630Δerm biofilm. Description: DNase, RNase and proteinase K digests of biofilm (floc) in liquid culture.
For test [3], the system named is C. difficile strain 630Δerm. In words: Inhibition of biofilm formation in TC flasks. The conditions noted are these: 10 mg/ml in the growth media; incubated statically for six days (FIG. 9).
Where [4] appears, read: 1 mg/ml, 15 minute treatment, room temperature.

B1: RNase: RNaseA enzyme used to digest biofilm constituents (protein, UniProt P61823 27-150, looked up)
Ribonuclease pancreatic: KETAAAKFERQHMDSSTSAASSSNYCNQMMKSRNLTKDRCKPVNTFVHESLADVQAVCSQKNVACKNGQTNCYQSYSTMSITDCRETGSSKYPNCAYKTTQANKHIIVACEGNPYVPVHFDASV
Take B1: the “Degradation of the biofilm” value in test [1] is “only degraded by DNase treatment”. Moreover, the “Degradation of the biofilm (floc produced in static culture)” value is “did not disrupt the biofilm” in test [2] (100 ug/ml, 15 minute treatment, room temperature) and “did not disrupt the biofilm” in test [2] (setting [4]).

B2: proteinase K: a proteinase used to digest biofilm constituents (protein, UniProt P06873 106-384, looked up)
Proteinase K: AAQTNAPWGLARISSTSPGTSTYYYDESAGQGSCVYVIDTGIEASHPEFEGRAQMVKTYYYSSRDGNGHGTHCAGTVGSRTYGVAKKTQLFGVKVLDDNGSGQYSTIIAGMDFVASDKNNRNCPKGVVASLSLGGGYSSSVNSAAARLQSSGVMVAVAAGNNNADARNYSPASEPSVCTVGASDRYDRRSSFSNYGSVLDIFGPGTSILSTWIGGSTRSISGTSMATPHVAGLAAYLMTLGKTTAASACRYIADTANKGDLSNIPFGTVNLLAYNNYQA
Regarding B2, the “Degradation of the biofilm” value in test [1] is “only degraded by DNase treatment”. Further, the results for the “Degradation of the biofilm (floc produced in static culture)” value in test [2] (setting [4]), in test [2] (concentration increased to 2 mg/ml proteinase K (data not shown)) and in test [2] (incubation time increased to 24 hours (data not shown)) were “partial degradation with proteinase K was not observed”, “partial degradation” and “partial degradation”, respectively. Further, in test [3], the “Formation of biofilm in liquid media” value is “decreases biofilm formation”.
